# Assay results taken from publication PMC11366018 (Nature Communications, 2024).
# Where a chain is given by its changes, count along the chain named. Values joined by “and” are separate entries in the source; they are usually repeats but may differ in a detail not shown here. Equal values may be shown once.
# B1: H18 (antibody, V domains shown)
# VH: QVQLQESGPGLVKPSETLSLTCTVSGGSVSSGGYFWSWIRQPPGKGLEWIGCIYYSGSTNYNPSLKSRVTISVDTSKDQFSLKLSSVTAADTAVYYCARQLWLRGRFDYWGQGTLVTVSS
# VL: NFMLTQPHSVSESPGKTVTISCTRSSGSIASNYVQWYQQRPGSSPTTVIYEDNQRPSGVPDRFSGSIDSSSNSASLTISGLKTEDEADYYCQSYDSSNVVFGGGTKLTVL
# notes: human IgG1
# B2: R1-26 (antibody, V domains shown)
# VH: EVQLVESGGGLVQPGGSLRLSCAASGFTFSSYWMSWVRQAPGKGLEWVANIKQDGSEKYYVDSVKGRFTISRDNAKNSLYLQMNSLRAEDTAVYYCARGQLGPWVGVDYWGQGTLVTVSS
# VL: B1 VL with R24G, S44A, V99W, K106Q
# B3: S2A4 (antibody, V domains shown)
# VH: EVQLVESGGGLVQPGGSLRLSCAASGFTFSSYWMNWVRQAPGKGLEWVANIKQDGSEKYYVDSVKGRFTISRDNAKNSLFLQMNSLRAEDTAVYYCARVWWLRGSFDYWGQGTLVTVSS
# VL: NFMLTQPHSVSESPGKTVTISCTGSSGSIASNYVQWYQQRPGSAPTTVIYEDNQRPSGVPDRFSGSIDSSSNSASLTISGLKTEDEADYYCQSYDSSNHVVFGGGTKLTVL
# Target: SARS-CoV-2 RBD (WT) (SARS-CoV-2 Wuhan-Hu-1 (wildtype), UniProt P0DTC2)
# Assay: BLI
# Details: both partners purified
Binder,Kd,koff,kon
B1,29.5 nM and 29 nM,0.00931 s⁻¹ and 0.0162 s⁻¹,316000 M⁻¹ s⁻¹ and 560000 M⁻¹ s⁻¹
B2,5.75 nM,0.00291 s⁻¹,507000 M⁻¹ s⁻¹
B3,25.3 nM,0.0096 s⁻¹,380000 M⁻¹ s⁻¹
